This is an account of results in the DeepSol protein solubility set.

A short description of the data set: soluble on expression in E. coli; label from the status in PepcDB or PDB records.
As to “MDSLMRVFSHRSPPPSFGFACDVGAHPSSTAQNLPMTYGSVREMIDDFSIVFGVPKYRTSKPKKVTRKFSFTRLLQPIDNLVTCPACSNIHPSDTICDACYAKVHQLTSEIKKKMMQYNPYVGEKQDKEVYVKFRGEPDAPAAVVKGKRVLEIEKERPTWFKKLTLKE”, the “soluble on expression in E. coli” value is recorded as “not soluble”.

Regarding “MSLNQTFDKENLESKNTQNLQKSKNPTSQLSKTILKEEFNFLPNDVEINWKGRVLVIGDIHGDLKSLITSLFLSGVINSNLDWIAKNTLLIQLGDVVDRGSHALQIYKLFNKLKSQAPSLGSKFVGLLGNHEVMNLCGQLHYVTDEDFQTYGGRDNRTFEWSKEGFVGKYLRTMKLAIRVNDSLYVHAGLLPKYAKLGLDKLDKLSNDLLEGDFCDFYSSLFFVEDGPLWTRDISLGEEEKACKLVDETLQILGLSRMVVGHTIQHDNRINIKCDNKLILADTGFSEAIYGKPCMLEILYHNDNPDPSNYKSFHPYSEGHHHHHH”, the “soluble on expression in E. coli” value was “not soluble”.

Consider “MGSDKIHHHHHHVWNDRVELSGKCEYALLALIELARGHSNGEPQQIKQLADRQNIPDRYLEQLLATLRRGGIVRSVRGARGGYLLAREPWQISMQDVVHCIDGTEMQRTEAIDQQSVTIERQILVDINVELCKAVEDVLAAYSLQDLLEIRENRASTDLMYYI”, for which the “soluble on expression in E. coli” value was “not soluble”.

As for “MGSDKIHHHHHHAASVTPSSALLKKSNSYYRSHARALGKKYKLAFDAQSALKKNGKAVIYVNTKDKTLNQSVKLAMAYWNKKLGKTEFTQGSKKNHTLTFGVSTAAASKSDQSDAWWTPMTKKLDVRWSYYTAEKQNIGISMTNQLNKAFYKQYADTIETKAKANLAAKGITTSDKDYLSPFNREASNVETSLPAYTTLKKDVCLVKSTLANEGRKYEYASTIAHEMGHVMGLNHSPNKQDLMYFESGNNNVYSFKKVKAGLSKYNPITTTDKNRAKLALKIYVAAH”, the “soluble on expression in E. coli” value is reported as “not soluble”.

“MRTLAVISAGLSTPSSTRQIADSISEAVTAAVSARGEALSVSTIELSELIPDLMTAMTTRVHTTKLEEITSALSASDGLVVATPVFKASYTGLFKMFFDILDTDALTGMPTIIAATAGSARHSLVLDYALRPLLSYMRAVVVPTGVFAATEDFGGPEGAEFNKRIARAAGELASLIVEESGNVGLEHHHHHH”: the “soluble on expression in E. coli” value is given as “not soluble”.

In the case of “GMDGASEIELVFRPHPTLMEKDDSAQTRYIKTSGNATVDHLSKYLAVRLALEELRSKGESNQMNLDTASEKQYTIYIATASGQFTVLNGSFSLELVSEKYWKVNKPMELYYA”, the “soluble on expression in E. coli” value is recorded as “soluble”.

On to “MIKKIYFGNDHAAYEIKDQIITHLKQKGYQIIDEGAQAALGSVDYSTYALKVANDVVNDTKNDSIGILLCGTGIGMNIAASKVHGTRVALVYNESSAKLAKEHNNANIITIGARENSLNQILKMIDDFLTSKFLGERHQKRLDIIAKYEKEQNS”, for which the “soluble on expression in E. coli” value was “soluble”.

For the sequence “MIDQFKFLNPQALISIFGKIPKFEESELLDVRLKRDGPTLVIQLMTKENVENKPKRWNKWDVIYVEISFFTIHNLTIKGLGTENIIDYFEINTIEEEGLLKIKCKNQMLVECSFEWAKVEGVTPGLIGLP”, the “soluble on expression in E. coli” value is given as “not soluble”.

Take “MDCVVGRKNSAAVLLVLSERKTREEIILKLPDKTQESVIKAIDELERKYRRKFREKFKTITVDNGTEFLDYRGIEKSKTEPGKDRTKVYYAHPYSSWERGTNENINKLIRRFIPKGTDISKVSKAKIKSIERWINEYPRRMFGYRSAIEMAV”: the “soluble on expression in E. coli” value was “soluble”.

“MSLNSKKETINIGCSLPLTGEGANYGRSVKEGVDLAIEEINQSEMFDLPLKVIYEDDKMDPREGVNAINKLITADNVPIIIGPFGSSITLAVAPIANKNKVVLLGASATADNIKDAGDYIFRITPPNSKQGNDVASFCFNSLNSKKAAIIYQTNDYGTTLKTAFESEYLKLGGEVLIVEGVDLGNKDFKTQILKIKSKQVDVVFFPLHVAESGNFLKQSKELGLNVKFISCDGAMVDDLLKLAGNAAEGTYYTSLALAYGMNDSLINSFNTNFKKKYNKEPDVYAAYYYEVTYILAHALKKANGNIGQIKEILYSINGENAYNGITGLTSFDTYGEVDKSFSIYVVSNNKFSLFKEGHHHHHH”: the “soluble on expression in E. coli” value was “soluble”.

“MGSDKIHHHHHHMNIIGFSKALFSTWIYYSPERILFDAGEGVSTTLGSKVYAFKYVFLTHGHVDHIAGLWGVVNIRNNGMGDREKPLDVFYPEGNRAVEEYTEFIKRANPDLRFSFNVHPLKEGERVFLRNAGGFKRYVQPFRTKHVSSEVSFGYHIFEVRRKLKKEFQGLDSKEISRLVKEKGRDFVTEEYHKKVLTISGDSLALDPEEIRGTELLIHECTFLDARDRRYKNHAAIDEVMESVKAAGVKKVILYHISTRYIRQLKSVIKKYREEMPDVEILYMDPRKVFEM”: the “soluble on expression in E. coli” value was “not soluble”.

For “MRDIQQVLERWGAWVANNHEDVTWSSIAAGFKGLIPSKVKSRPQCCDDDAMVICGCMARLNRNNNDLHDLLVDYYVFGMTFMTLARKHGCSDGYIGKKLQKAEGVVEGMLMMLGVRLEMDKYIEHP”, the “soluble on expression in E. coli” value is reported as “not soluble”.

Regarding “MSNIVYLTVTGEQQGSISAGCGTSESTGNRWQSGHEDEIFTFSLLNNINNTGLGSQFHGITFCKLIDKSTPLFINSINNNEQLFMGFDFYRINRFGRLEKYYYIQLRGAFLSAIHHQIIENQLDTETITISYEFILCQHLIANTEFSYLALPENYNRLFLPNSKNQTNNRFKTLNSKAIGRLLAAGGVYNGNIEGFRDTAEKLGGDAIKGYDQILNEKTAGIAIATASILLTKRSNVDTYTEINSYLGKLRGQQKLLDGIDIIEIIYIKRPSKDLANLRKEFNKTVRKNFLIKLAKTSEASGRFNAEDLLRMRKGNVPLNYNVHHKLSLDDGGTNDFENLVLIENEPYHKVFTNMQSRIAKGILVGESKITPWAIPSGSIYPPMKNIMDHTK”, the “soluble on expression in E. coli” value is recorded as “not soluble”.

Turning to “MGSDKIHHHHHHMLPLSAEEFARLVPILRQAGLSHVTHIHELAGGLSNHNYHIQTPTTQYALRLNAEAADRFCSREQELFYWRNLAKAKLAPELIWTSCDHRYYLSAFIESQDIASLLNASQIPDMLGDWADVRGALNWKNLAYQCSAAEFTLGEQRLQTWLQAHAENFECALHQACMPQSFAAQLTPLALLESQCPNRVHSLLLQLLQRLRLQSAGPYHISVTEQWQQYHQQLLAFAATDKGSAWQTRLDLLLGLQPQIHRWTTVLADCLVAAQFCHRDLNPHNLLLKDNQLYCIDFEYATASHPLCELAVVLATHRLTPVQRHILVRQYLADHPGVTSTAITAVPAAIDMYWVFALYWALLIAAQTDAERQQEYLAWFDSFWSLVSQDA”, the “soluble on expression in E. coli” value is on record as “not soluble”.

Turning to “MSLTNNNHRLISNSFSTYSIDTSRAYENYLTHWTEWKNNRIQEEQRDIAFQRLVSCLQNQETNLDLSELGLTTLPEIPPGIKSINISKNNLSLIPPLPASLTQLNVSYNRLIELPALPQGLKLLNASHNQLITLPTLPISLKELHVSNNQLCSLPVLPELLETLDVSCNGLAVLPPLPFSLQEISAIGNLLSELPPLPHNIHSIWAIDNMLTDIPYLPENLRNGYFDINQISHIPESILNLRNECSIDISDNPLSSHALQSLQRLTSSPDYHGPQIYFSMSDGQQNTLHRPLADAVTAWFPENKQSDVSQIWHAFEHEEHANTFSAFLDRLSDTVSARNTSGFREQVAAWLEKLSASAELRQQSFAVAADATESCEDRVALTWNNLRKTLLVHQASEGLFDNDTGALLSLGREMFRLEILEDIARDKVRTLHFVDEIEVYLAFQTMLAEKLQLSTAVKEMRFYGVSGVTANDLRTAEAMVRSREENEFTDWFSLWGPWHAVLKRTEADRWALAEEQKYEMLENEYPQRVADRLKASGLSGDADAEREAGAQVMRETEQQIYRQLTDEVLALRLPENGSQLHHSEGHHHHHH”, the “soluble on expression in E. coli” value is listed as “soluble”.

With “MSLPPCPQCASEYTYEDGGQYICPECAHEWNETESAADLAAQVRDANGAVLQNGDTVILIKDLKVKGSSMVIKQGTKVKGIRLQEGDHNIGCKIDGSAMNLKSEFVKKA”, the “soluble on expression in E. coli” value is given as “not soluble”.

“SLKALWIYVGPVEDYGWTRAHHDGHMKARSKLGWLESSYIETVSEDKAYDVIKAQLDAEGYDAVFATSYGYMDALKRLATEYPDVKFYHCSGPWEEFRDLPNVSTYFAEFYQLYYLNGLAAAGATETCNLGYIPAFLIPEVVRHINAYVIGAVEGAKVLGKCGDGRNIRVLVTPPLNSWFAPDKARDAARLLVETYDVDVIAYTEDTTAVLETAESYWDQGVKVYSFSHYTDMYAYFKSQGKTLRSHLTGQIS”: the “soluble on expression in E. coli” value is reported as “soluble”.
